Reference: PMC2987827

What was measured:
Assay in all cases: cross-linking; 293T cells coexpressing FLAG- and HA-tagged Gag and V1B-MS2 viral RNA treated with 1 mM EGS, 30 min, room temperature; membrane flotation; cytoplasmic fraction (10th fraction) analysed by anti-FLAG western blot
[1] = target: HIV-1 G2A-Gag, FLAG- and HA-tagged (HIV-1)
[2] = target: HIV-1 Gag, FLAG- and HA-tagged (wild type) (HIV-1)
[3] = target: HIV-1 Gag-delCTD, FLAG- and HA-tagged (lacking the C-terminal domain of capsid) (HIV-1)

HIV-1 G2A-Gag, FLAG- and HA-tagged (natural protein)
stoichiometry N [1]: 2

HIV-1 Gag, FLAG- and HA-tagged (wild type) (natural protein)
stoichiometry N [2]: 2

HIV-1 Gag-delCTD, FLAG- and HA-tagged (lacking the C-terminal domain of capsid) (natural protein)
stoichiometry N [3]: 2
